Test: yeast display, Sf9 membrane polyspecificity reagent, FACS + sequencing; frameworks hold sequencing errors
Method in brief: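 Sorting gates, low and high (top ~1%), were placed on anti-HA fluorescence to track expression and on streptavidin fluorescence to track reagent binding. A clone's polyreactivity label is taken from the gate it came out of. The reagent was 10% biotinylated, detergent-solubilized Sf9 membrane, applied for 1 hour at 4 °C to galactose-induced yeast display cells.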

Sequence	polyreactivity (PSR sort gate)
QVQLVESGGGLVQAGGSLRLICAASGLTFGSNGMGWYRQAPGKERELVAAISRGGSTSYADSVKGRFTISRDNAKNTVYLQMNSLKPEDTAVYYCNASPWGPSYFRTPYYGVRRYNYWGQGTQVTVSS	high polyreactivity
QVQLVESGGGLVQAGGSLRLSCAASGRIIVLYAMGWYRQAPGKERELVASIRSGGSTNYADSVKGRFTISRDNAKNTVYLQMNSLKPEDTAVYYCAARPDHKRYDYWGQGTQVTVSS	low polyreactivity
QVQLVESGGGLVQAGGSLRLSCAASGRTYDQYVMGWYRQAPGKERELVAAITSGGSTYYADSVKGRFTISRDNAKNTVYLLMNSLKPEDTAVYYCNARTSVLHDYWGQGTQVTVSS	low polyreactivity
QVQLVESGGGLVQAGGSLRLSCAASGITFAYNAMGWYRQAPGKERELVARITSGGRTYYADSVKGRFTISRDNAKNTVYLQMKSLKPEDTAVYYCNAKEGSRYRKYDYWGPGTQVTVSS	low polyreactivity
QVQLVESGGGLVQAGGSLRLSCAASGNIFGHYTMGGYRQAPGKERELVAAISRTGGRTYYADSVKGRFTISRDNAKKTVYLQMNSLKPEDTAVYYCAADKGGTYFNGDSWGQGTQVTVSS	high polyreactivity
QVQLVESVGGLVQAGGSLRLSFAASGRTFVWYVMGWYSQAPVKERELVAAISLRGGTTYYADSVKGRFTISRDNAKNTVYLQMNSLKPEDTAVYYCAIAGIRHVTSKFKGYHFGYWGQGTQVTVSS	low polyreactivity
QVQLLESGGGLVQAGGSLRLSCAASGSTFWPNAMGWYRQAPGKERELVAAITGGGGTNYADSVKGRFTISRDNAKNTVYLQMNSLKPEDTAVYYCAAKKVNSRSHVKYYYWGQGTQVTVSS	high polyreactivity
QVQLVESGGGLVQAGGSLRLSCAASGSTFYWYAMGWYRQAPGKERELVAAIDSGGSTNYADSVKGRFTISRDNAKNTVYLQMNSLKPEDTAVYYCATVYYTIWDPTYEYDYWGQGTQVTVSS	low polyreactivity
QVQLVESGGGLVQAGGSLRLSCAASGLIFDWYAMGWYRPAPGKERELVADISNSGGSTNYADSVKGRFTISRDSAFNTVYLQMNSLKPEDTEVYYCAVDYYYPTLTIGYYYWGQVTQVTVSS	low polyreactivity
QVQLVESGGGLVQAGGSLRLSCAASGLTFLFYAMGWYRHATGKERELVASIRWSDGRTYYADSVKGRFTISRDNAKNTVYLQMNSLKPEDTAVYYCAVVPAYVYLNREYYWGQGTQVTVSS	high polyreactivity
QVQLVESGGRLVQAGGSHRIRCAASGFIFWYYAMGWYRPAPGKERELVAGITTGGSTNYADSVKGRFTISRDNAKNTVYLEMNSLKPEDTAVYYCNADPTYQVGYDYWGQGTQVTVSS	low polyreactivity
QVQLAESGGCLVQAGGRLRLSCAASGSTFPHYAMGWYRQAPGKERELVAAISVRGGRTYYADSVKGRFTISRDNAKNNDSLQMNSLKPEDTAVYYCNKYYDVTKYGYWGQGTQVTVSS	high polyreactivity
QVQLVESGAGFFQAGGSLRVSCAASGRTFPVYAMGWYRHAPGNERELVARINSGGRTTYADSVKGRFTISRDNAKNTVYLQMISLNPEDTAVYYCNARSWYYVWRKGYRHGDYWGQGTQVTVSS	high polyreactivity
QVQLVESGGGLVQAGGSLRLICAASGSIFHRYTMGWYRQAPGKERELVAAINYSGSTTHYADSVKGRFTISRDNAKNTVYLQMNSLKPEDTAVYYCAAGSTRWYPTRVRYDYWGQGTQVTVSS	low polyreactivity
QVQLVESGGGLVQAGGSLRLSCAASGIIFDPYAMGWYRQAPGKERELVADIDNASSTYYADSVKGRFTISRDNAKNTVYLQMNSLKPEDTAVYYCTADLWYGGEYWGQGTQVTVSS	low polyreactivity
QVQLVESGGGLVQAGGSLRLSCAASGRIFRFYAMGWYRQAPGKERELVAAINSRGGSTYYADSVKGRFTISRDNAKNTVYLQMNSLKPEDTAFYYCNARSGFGYGYGYWGQGTQVTVSS	high polyreactivity
